{"source": "paper doi:10.1101/590273", "about": "“The structure of an injectisome export gate demonstrates conservation of architecture in the core export gate between flagellar and virulence type three secretion systems” (bioRxiv, 2019)", "binders": {"B1": {"name": "Shigella flexneri SctR (Spa24) (natural protein)", "chain": "MLSDMSLIATLSFFTLLPFLVAAGTCYIKFSIVFVMVRNALGLQQVPSNMTLNGIALIMALFVMKPIIEAGYENYLNGPQKFDTISDIVRFSDSGLMEYKQYLKKHTDLELARFFQRSEEENADLKSAENNDYSLFSLLPAYALSEIKDAFKIGFYLYLPFVVVDLVISSILLALGMMMMSPITISVPIKLVLFVALDGWGILSKALIEQYINIPA", "notes": "Spa24 (SctR), export gate component of the Shigella flexneri virulence type three secretion system; expressed from the complete operon; Five copies stand in the SctR5S4T1 complex"}, "B2": {"name": "Salmonella enterica serovar Typhimurium FliQ (natural protein)", "chain": "MTPESVMMMGTEAMKVALALAAPLLLVALITGLIISILQAATQINEMTLSFIPKIVAVFIAIIVAGPWMLNLLLDYVRTLFSNLPYIIG", "notes": "FliQ, flagellar export gate component of Salmonella enterica serovar Typhimurium; source: expression of the complete operon"}, "B3": {"name": "Shigella flexneri SctS (Spa9) (natural protein)", "chain": "MSDIVYMGNKALYLILIFSLWPVGIATVIGLSIGLLQTVTQLQEQTLPFGIKLIGVSISLLLLSGWYGEVLLSFCHEIMFLIKSGV", "notes": "Spa9 (SctS), export gate component of the Shigella flexneri virulence type three secretion system; expressed from the complete operon; Two to four copies stand in the complexes seen (SctR5S2T1, SctR5S3T1, SctR5S4T1)"}, "B4": {"name": "Salmonella enterica serovar Typhimurium FliP (natural protein)", "chain": "QLPGLISQPLAGGGQSWSLSVQTLVFITSLTFLPAILLMMTSFTRIIIVFGLLRNALGTPSAPPNQVLLGLALFLTFFIMSPVIDKIYVDAYQPFSEQKISMQEALDKGAQPLRAFMLRQTREADLALFARLANSGPLQGPEAVPMRILLPAYVTSELKTAFQIGFTIFIPFLIIDLVIASVLMALGMMMVPPATIALPFKLMLFVLVDGWQLLMGSLAQSFYS", "notes": "FliP, flagellar export gate component of Salmonella enterica serovar Typhimurium; source: expression of the complete operon"}}, "key": {"[1]": {"target": "T1, Shigella flexneri SctT (Spa29) (Shigella flexneri, UniProt P0A1M6 1-256)", "T1 construct": "Spa29 (SctT), export gate component of the Shigella flexneri virulence type three secretion system; expressed from the complete operon; One copy stands in the complex; not shown: dual-strep tag, C-terminal, kept", "T1 sequence": "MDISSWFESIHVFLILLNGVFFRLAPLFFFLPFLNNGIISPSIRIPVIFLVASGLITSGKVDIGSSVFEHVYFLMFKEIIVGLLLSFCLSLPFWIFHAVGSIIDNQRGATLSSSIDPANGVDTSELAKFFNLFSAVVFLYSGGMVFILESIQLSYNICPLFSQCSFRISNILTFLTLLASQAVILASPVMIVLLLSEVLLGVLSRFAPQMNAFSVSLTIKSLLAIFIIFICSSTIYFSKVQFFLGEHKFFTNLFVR", "assay": "cryo-EM structure; SctRST complex co-expressed from one operon and purified by the strep tag on SctT; 0.01% LMNG in TBS (100 mM Tris, 150 mM NaCl, 1 mM EDTA, pH 8), 8.4 mg/ml; single particle cryoEM, RELION-3, 3.5 Å; further 3D classification gives classes with 2, 3 or 4 SctS", "conditions": "both partners purified"}, "[2]": {"target": "T2, Salmonella enterica serovar Typhimurium FliR (Salmonella enterica serovar Typhimurium, UniProt P54702 1-264)", "T2 construct": "FliR, flagellar export gate component of Salmonella enterica serovar Typhimurium; source: expression of the complete operon", "T2 sequence": "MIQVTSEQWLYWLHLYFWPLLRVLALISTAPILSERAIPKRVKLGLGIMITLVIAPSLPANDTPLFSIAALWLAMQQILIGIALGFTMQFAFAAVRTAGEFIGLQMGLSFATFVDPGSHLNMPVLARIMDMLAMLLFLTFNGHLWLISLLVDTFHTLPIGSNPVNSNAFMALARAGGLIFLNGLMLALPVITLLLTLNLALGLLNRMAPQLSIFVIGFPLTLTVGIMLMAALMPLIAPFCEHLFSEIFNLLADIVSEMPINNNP", "assay": "cryo-EM structure; re-refinement of the original S. Typhimurium FliPQR data (Kuhlen, Abrusci et al. 2018) in RELION-3 with particle polishing and per-particle CTF refinement, 3.65 Å; coordinates remodeled and re-refined", "conditions": "both partners purified"}, "[3]": {"target": "B1", "assay": "cryo-EM structure; SctRST complex co-expressed from one operon and purified by the strep tag on SctT; 0.01% LMNG in TBS (100 mM Tris, 150 mM NaCl, 1 mM EDTA, pH 8), 8.4 mg/ml; single particle cryoEM, RELION-3, 3.5 Å; further 3D classification gives classes with 2, 3 or 4 SctS", "conditions": "both partners purified"}, "[4]": {"target": "the molecule itself", "assay": "cryo-EM structure; re-refinement of the original S. Typhimurium FliPQR data (Kuhlen, Abrusci et al. 2018) in RELION-3 with particle polishing and per-particle CTF refinement, 3.65 Å; coordinates remodeled and re-refined"}}, "note": "Values joined by “and” are separate entries in the source; they are usually repeats but may differ in a detail not shown here. Identical values can stand only once."}
{"binder": "B1", "values": [{"measurement": "binding result", "setting": "[1]", "value": "binds"}]}
{"binder": "B2", "values": [{"measurement": "binding result", "setting": "[2]", "value": "binds"}]}
{"binder": "B3", "values": [{"measurement": "binding result", "setting": "[3]", "value": "binds"}, {"measurement": "stoichiometry N", "setting": "[1]", "value": "4 and 2 and 3"}]}
{"binder": "B4", "values": [{"measurement": "binding result", "setting": "[4]", "value": "binds"}, {"measurement": "binding result", "setting": "[2]", "value": "binds"}]}
